Measured values published in paper PMC10591882 (Cell reports, 2023).

Target: T1, TBEV envelope protein domain III (EDIII) (Tick-borne encephalitis virus, Western …)
T1 chain: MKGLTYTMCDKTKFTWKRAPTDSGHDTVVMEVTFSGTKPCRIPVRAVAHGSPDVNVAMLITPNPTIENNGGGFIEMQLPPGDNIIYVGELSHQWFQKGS
Assay: cell-based or functional assay

B1: human monoclonal antibody T025 (antibody, V domains shown)
VH: QVQLVESGGGVVQPGRSLRLSCAASGFTFSNYGMHWVRQAPGKGLDWVAVISYDAISKSYADSVEGRFTISRDNSKNTLYLQMNSLRAEDSAVYYCAKSPTAIDPPFDYWGQGTLVTVSS
VL: EIVMTQSPATLSVSPGERATLSCWASQSVSSNLAWYQQKPGQAPRLLIYGASTRATGIPARFSASGSGTEFTLTISSLQSEDFAVYYCQQYNNWPPRFGQGTKVEIK
IC50 of neutralisation of TBEV-Hypr (virus neutralization test on PS cells): 29.3 ng/mL
